B1: Ube2G2 (untagged, from 6xHis-SUMO-Ube2G2) (enzyme)
chain: MAGTALKRLMAEYKQLTLNPPEGIVAGPMNEENFFEWEALIMGPEDTCFEFGVFPAILSFPLDYPLSPPKMRFTCEMFHPNIYPDGRVCISILHAPGDDPMGYESSAERWSPVQSVEKILLSVVSMLAEPNDESGANVDASKMWRDDREQFYKIAKQIVQKSLGL

Assay in all cases: SEC
Background: Size exclusion chromatography separates by hydrodynamic size, large species first.

The target in assay [1] is B1.
Assay [2] has as its target GST-Gp78c (aa309-643, RING-CUE-G2BR) (UniProt Q9UKV5 309-643).
In assay [3] the target is B1. The source holds these as a separate data set.

Read-outs that look alike come from different tables or passages of the source.

Sequence of GST-Gp78c (aa309-643, RING-CUE-G2BR) (Q9UKV5 309-643): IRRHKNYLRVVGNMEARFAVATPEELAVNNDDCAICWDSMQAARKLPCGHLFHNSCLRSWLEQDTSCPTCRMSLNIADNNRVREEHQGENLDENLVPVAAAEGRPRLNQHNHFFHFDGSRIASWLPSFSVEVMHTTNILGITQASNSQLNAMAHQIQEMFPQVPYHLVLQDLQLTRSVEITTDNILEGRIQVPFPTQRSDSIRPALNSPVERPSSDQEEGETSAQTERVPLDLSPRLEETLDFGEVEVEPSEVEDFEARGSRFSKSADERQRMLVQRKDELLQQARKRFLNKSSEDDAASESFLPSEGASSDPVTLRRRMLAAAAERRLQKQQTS

GGSSSADERQRMLVQRKDELLQQARKRFLNKS [SBP-His6-G2BR^Gp78]: in assay [1], the binding result was “binds”.
As to GGSSSSWARQESLQERKQALYEYARRRFTER [SBP-His6-G2BR^AUP1], the binding result in assay [1] is given as “binds”.
In the case of B1, the binding result in assay [2] was “binds”.

B2: CUE-G2BR^AUP1 (AUP1 C-terminal region, aa292-410) (domain or fragment)
chain: SPDVQLATLAQRVKEVLPHVPLGVIQRDLAKTGCVDLTITNLLEGAVAFMPEDITKGTQSLPTASASKFPSSGPVTPQPTALTFAKSSWARQESLQERKQALYEYARRRFTERRAQEAD
Regarding B2, the binding result in assay [3] is listed as “binds”.

(Values after publication PMC12000298 (Communications Biology, 2025).)
